Among the data in article doi:10.1101/2025.06.16.659985, “Dynamic assembly of malate dehydrogenase-citrate synthase multienzyme complex in the mitochondria” (bioRxiv, 2025) are Kd values, retold here.

For orientation: Kd means a measure of binding affinity in units of concentration.

The target of experiment [1] is T1, recombinant yeast MDH1, fluorescently labeled (yeast (Saccharomyces cerevisiae), UniProt P17505 18-334, labeled with Protein Labeling Kit RED-NHS 2nd Generation (NanoTemper)).
T1 chain: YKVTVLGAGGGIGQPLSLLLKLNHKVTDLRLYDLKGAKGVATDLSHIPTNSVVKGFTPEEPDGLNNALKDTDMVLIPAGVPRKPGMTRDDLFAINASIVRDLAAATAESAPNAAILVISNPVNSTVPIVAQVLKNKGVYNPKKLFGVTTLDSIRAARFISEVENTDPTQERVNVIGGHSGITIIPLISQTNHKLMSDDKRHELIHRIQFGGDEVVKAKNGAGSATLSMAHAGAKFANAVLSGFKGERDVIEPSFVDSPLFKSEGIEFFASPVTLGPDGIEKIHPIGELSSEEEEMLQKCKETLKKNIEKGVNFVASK
Nature of the experiment: MST; control (no metabolite).

Experiment [2] has as its target T1, recombinant yeast MDH1, fluorescently …. Put plainly: MST; 10 mM malate.
The target is the same in experiment [3]. Put plainly: MST; 10 mM fumarate.
The target is the same in experiment [4]. Nature of the experiment: MST; pH 6.8.
The target in experiment [5] is T2, recombinant yeast CIT1 (yeast (Saccharomyces cerevisiae), UniProt P00890 38-479).
T2 construct: citrate synthase CIT1, mitochondrial, yeast (Saccharomyces cerevisiae); also called recombinant CIT1; source: recombinant; produced according to the Supplementary Methods
T2 sequence (looked up): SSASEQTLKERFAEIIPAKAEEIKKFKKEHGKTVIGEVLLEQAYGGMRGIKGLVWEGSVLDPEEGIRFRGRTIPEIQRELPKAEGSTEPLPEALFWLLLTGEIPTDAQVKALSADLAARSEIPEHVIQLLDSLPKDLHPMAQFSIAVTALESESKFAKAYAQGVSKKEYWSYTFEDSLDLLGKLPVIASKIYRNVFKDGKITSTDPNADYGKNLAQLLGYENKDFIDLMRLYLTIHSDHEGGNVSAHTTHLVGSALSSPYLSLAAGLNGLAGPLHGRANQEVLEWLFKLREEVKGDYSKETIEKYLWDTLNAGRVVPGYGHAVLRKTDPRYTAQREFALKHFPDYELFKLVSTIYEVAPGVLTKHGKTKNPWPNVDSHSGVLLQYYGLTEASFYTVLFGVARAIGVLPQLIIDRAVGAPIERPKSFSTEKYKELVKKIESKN
Nature of the experiment: MST; labeled MDH1 as target, CIT1 titrated (two-fold dilutions of 80 μM, 16 concentrations), Monolith NT.115, room temperature; buffer pH 7.2. To be noted: both partners purified.

Experiment [6] concerns the target T2, recombinant yeast CIT1. Nature of the experiment: MST; labeled MDH1 as target, CIT1 titrated (two-fold dilutions of 80 μM, 16 concentrations), Monolith NT.115, room temperature; buffer pH 6.0. To be noted: both partners purified.
Experiment [7] concerns the target T2, recombinant yeast CIT1. Put plainly: MST; labeled MDH1 as target, CIT1 titrated (two-fold dilutions of 80 μM, 16 concentrations), Monolith NT.115, room temperature; buffer pH 6.4. The conditions noted are these: both partners purified.

B1: recombinant yeast CIT1 (enzyme)
chain: SSASEQTLKERFAEIIPAKAEEIKKFKKEHGKTVIGEVLLEQAYGGMRGIKGLVWEGSVLDPEEGIRFRGRTIPEIQRELPKAEGSTEPLPEALFWLLLTGEIPTDAQVKALSADLAARSEIPEHVIQLLDSLPKDLHPMAQFSIAVTALESESKFAKAYAQGVSKKEYWSYTFEDSLDLLGKLPVIASKIYRNVFKDGKITSTDPNADYGKNLAQLLGYENKDFIDLMRLYLTIHSDHEGGNVSAHTTHLVGSALSSPYLSLAAGLNGLAGPLHGRANQEVLEWLFKLREEVKGDYSKETIEKYLWDTLNAGRVVPGYGHAVLRKTDPRYTAQREFALKHFPDYELFKLVSTIYEVAPGVLTKHGKTKNPWPNVDSHSGVLLQYYGLTEASFYTVLFGVARAIGVLPQLIIDRAVGAPIERPKSFSTEKYKELVKKIESKN
For the molecule B1, the Kd is 6070 nM in experiment [1], 367 nM in experiment [2], 288 nM in experiment [3] and 2720 nM in experiment [4].

B2: recombinant yeast MDH1, fluorescently labeled (enzyme, yeast (Saccharomyces cerevisiae), UniProt P17505 18-334, looked up)
chain: YKVTVLGAGGGIGQPLSLLLKLNHKVTDLRLYDLKGAKGVATDLSHIPTNSVVKGFTPEEPDGLNNALKDTDMVLIPAGVPRKPGMTRDDLFAINASIVRDLAAATAESAPNAAILVISNPVNSTVPIVAQVLKNKGVYNPKKLFGVTTLDSIRAARFISEVENTDPTQERVNVIGGHSGITIIPLISQTNHKLMSDDKRHELIHRIQFGGDEVVKAKNGAGSATLSMAHAGAKFANAVLSGFKGERDVIEPSFVDSPLFKSEGIEFFASPVTLGPDGIEKIHPIGELSSEEEEMLQKCKETLKKNIEKGVNFVASK
modifications: labeled with Protein Labeling Kit RED-NHS 2nd Generation (NanoTemper)
notes: malate dehydrogenase MDH1, mitochondrial, yeast (Saccharomyces cerevisiae); also called recombinant MDH1; labeled MDH1; source: recombinant; produced according to the Supplementary Methods
For the molecule B2, the values for the Kd in the experiment with recombinant yeast CIT1 [5], with recombinant yeast CIT1 [6] and with recombinant yeast CIT1 [7] were 3480 nM, 33 nM and 223 nM, respectively.
